# Test results taken from PMC5241803, “Structural basis for the recognition and degradation of host TRIM proteins by Salmonella effector SopA” (Nature Communications, 2017).
# B1: MBP-TRIM56 (natural protein, human, UniProt Q9BRZ2 1-755, looked up)
# chain: MVSHGSSPSLLEALSSDFLACKICLEQLRAPKTLPCLHTYCQDCLAQLADGGRVRCPECRETVPVPPEGVASFKTNFFVNGLLDLVKARACGDLRAGKPACALCPLVGGTSTGGPATARCLDCADDLCQACADGHRCTRQTHTHRVVDLVGYRAGWYDEEARERQAAQCPQHPGEALRFLCQPCSQLLCRECRLDPHLDHPCLPLAEAVRARRPGLEGLLAGVDNNLVELEAARRVEKEALARLREQAARVGTQVEEAAEGVLRALLAQKQEVLGQLRAHVEAAEEAARERLAELEGREQVARAAAAFARRVLSLGREAEILSLEGAIAQRLRQLQGCPWAPGPAPCLLPQLELHPGLLDKNCHLLRLSFEEQQPQKDGGKDGAGTQGGEESQSRREDEPKTERQGGVQPQAGDGAQTPKEEKAQTTREEGAQTLEEDRAQTPHEDGGPQPHRGGRPNKKKKFKGRLKSISREPSPALGPNLDGSGLLPRPIFYCSFPTRMPGDKRSPRITGLCPFGPREILVADEQNRALKRFSLNGDYKGTVPVPEGCSPCSVAALQSAVAFSASARLYLINPNGEVQWRRALSLSQASHAVAALPSGDRVAVSVAGHVEVYNMEGSLATRFIPGGKASRGLRALVFLTTSPQGHFVGSDWQQNSVVICDGLGQVVGEYKGPGLHGCQPGSVSVDKKGYIFLTLREVNKVVILDPKGSLLGDFLTAYHGLEKPRVTTMVDGRYLVVSLSNGTIHIFRVRSPDS
# notes: TRIM56, human, full length, in pMAL-C2X; also called recombinant TRIM56; not shown: MBP, N-terminal, kept
# B2: TRIM56 (1–94) (domain or fragment, human, UniProt Q9BRZ2 1-94, looked up)
# chain: MVSHGSSPSLLEALSSDFLACKICLEQLRAPKTLPCLHTYCQDCLAQLADGGRVRCPECRETVPVPPEGVASFKTNFFVNGLLDLVKARACGDL
# notes: TRIM56, human, RING domain, residues 1-94; in the crystal this stretch stood N-terminal on one chain with SopA (163–425); also called TRIM56 RING domain; TRIM56 RING
# Experiments:
# [1] = biological target: T1, GST-SopA (S. Typhimurium, UniProt Q8ZNR3 1-782); experiment: pull-down; settings: both partners purified
# T1 construct: also called recombinant SopA; source: E. coli BL21 (DE3), purified on glutathione sepharose 4B beads; not shown: GST, N-terminal, kept
# T1 sequence: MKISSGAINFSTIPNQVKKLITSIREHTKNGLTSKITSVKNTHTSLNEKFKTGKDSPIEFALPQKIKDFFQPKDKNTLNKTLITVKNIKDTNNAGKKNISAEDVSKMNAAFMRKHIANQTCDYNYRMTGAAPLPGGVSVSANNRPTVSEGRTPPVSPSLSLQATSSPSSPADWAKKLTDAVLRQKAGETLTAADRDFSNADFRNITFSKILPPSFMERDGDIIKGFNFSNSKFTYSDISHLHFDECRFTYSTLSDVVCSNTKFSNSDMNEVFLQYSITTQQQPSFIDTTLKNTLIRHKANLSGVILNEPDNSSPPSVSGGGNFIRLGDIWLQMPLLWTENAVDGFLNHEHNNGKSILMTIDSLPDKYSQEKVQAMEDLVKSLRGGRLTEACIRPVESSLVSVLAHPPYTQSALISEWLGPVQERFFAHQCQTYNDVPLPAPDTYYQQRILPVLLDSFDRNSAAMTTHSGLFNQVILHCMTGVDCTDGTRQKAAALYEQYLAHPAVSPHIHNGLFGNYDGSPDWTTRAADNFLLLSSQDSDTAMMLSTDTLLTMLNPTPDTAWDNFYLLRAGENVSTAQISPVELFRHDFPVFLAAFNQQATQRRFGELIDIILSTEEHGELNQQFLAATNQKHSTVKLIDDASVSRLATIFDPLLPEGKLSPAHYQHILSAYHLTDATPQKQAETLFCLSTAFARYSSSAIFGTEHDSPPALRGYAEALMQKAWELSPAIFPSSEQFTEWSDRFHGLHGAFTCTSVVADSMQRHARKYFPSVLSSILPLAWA
# [2] = biological target: T2, SopA (163–782) (S. Typhimurium, UniProt Q8ZNR3 163-782); experiment: ITC; 1 mM TRIM56 (1–94) injected into 20 μM SopA (163–782) in the cell, 25 °C, 10 mM HEPES, 100 mM NaCl, 1 mM TCEP; VP-ITC; settings: both partners purified
# T2 construct: also called SopA WT; source: bacterially expressed, purified (Talon beads, size exclusion)
# T2 sequence: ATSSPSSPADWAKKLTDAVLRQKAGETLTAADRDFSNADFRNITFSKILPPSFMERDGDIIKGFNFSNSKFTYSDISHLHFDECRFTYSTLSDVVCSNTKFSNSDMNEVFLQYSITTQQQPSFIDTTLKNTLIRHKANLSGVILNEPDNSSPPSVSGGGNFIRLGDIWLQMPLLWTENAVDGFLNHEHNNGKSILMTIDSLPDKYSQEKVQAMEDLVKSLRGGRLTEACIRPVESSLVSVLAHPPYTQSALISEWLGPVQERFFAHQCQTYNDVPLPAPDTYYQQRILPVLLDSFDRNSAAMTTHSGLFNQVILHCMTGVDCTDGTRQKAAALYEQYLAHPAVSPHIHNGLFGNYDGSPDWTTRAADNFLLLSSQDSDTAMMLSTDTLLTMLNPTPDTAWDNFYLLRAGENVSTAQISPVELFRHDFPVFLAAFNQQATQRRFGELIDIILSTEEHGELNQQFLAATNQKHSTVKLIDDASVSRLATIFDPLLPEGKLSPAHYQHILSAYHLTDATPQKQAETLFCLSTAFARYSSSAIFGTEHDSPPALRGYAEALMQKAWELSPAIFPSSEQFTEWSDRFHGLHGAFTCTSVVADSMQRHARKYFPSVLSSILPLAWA
Binder,binding result [1],Kd [2] [µM]
B1,binds,
B2,,~9
